The data set is described as follows: yeast display, Sf9 membrane polyspecificity reagent, FACS + sequencing; frameworks hold sequencing errors. In short, it runs like this: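 A nanobody's polyreactivity label depends on the gate it was sorted from. Yeast display cells were stained with 10% biotinylated, detergent-solubilized Sf9 membrane reagent for 1 hour at 4 °C, enriched on streptavidin microbeads and sorted by FACS. The low and high (top ~1%) gates were set on anti-HA fluorescence for expression and streptavidin fluorescence for reagent binding.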
As for “QVQLVESGGGLVQAGGSLRLSCAASGSILYVYAMGWYRQAPGKERELVAVITSGGSTNYADSVKGRFTISRDNAKNTVYLQMHSLKPEDSAVYHCAAYYDYDWKYAPSFDYGYWGQGTQVTVSS”, the “polyreactivity (PSR sort gate)” value is given as “low polyreactivity”.
Under “QVQLVESGGGLVQAGGSLRLSCAASGSILYYYTMGWYRQAPGKERELVAAINTSGGITYYADSVKGRFTISRDNAKNTVYLQMNSLKPEDTAVYYCAAEGPEIKYYYWGQGTQVTVSL” stands “low polyreactivity”; under “QVQLVESGGGLVQAGGSLRLSCAASGSIMVRYAMGWYRQAPGKERELVAAITSGGSTYADSVKGRFTISRDNAKNTVYLQMNSLKPEDTAVYYCARDYFNREAFDYWGQGTQVTVSS”, “low polyreactivity”.
Under “QVQLVESGGGLVQAGGSLRLSCAASGSIMYVYAMGWYRQAPGKERELVAVITSGGSTNYAESVKGRFTISRDNAKNTVFLQMNSLKPEDTAVYYCAADPYSVYGGDYWGQGTQVTVSS” stands “low polyreactivity”; under “QVQLVESGGGLVQAGGSLRLSCAASGSINELYAKGWYRQAPGKERELVASITWRGGSTYYADSVKGRFTISRDNAKNTVYLQMNSLKPEDTAVYDCAADVPTASGTYDYWGQGTQVTVSS”, “low polyreactivity”.
The value for “QVQLVESGGGLVQAGGSLRLSCAASGSINYYAMGWYRQAPGKERELVAAITGSGGSTYYADSVKGRFTISRDNAKNTVYLQMNSLITEDTSVYYCAARYGYIYGPYYYWGQGTQVTVST” was “high polyreactivity”; that for “QVQLVESGGGLVQAGGSLRLSCAASGSINYYAMGWYRQAPGKERELVAAITGSGGSTYYADSVKGRFTISRDNAKNTVYLQMNSLKPEDTAVYYCAARYGYIYGPYYYWGQGTQVTVSS” was “high polyreactivity”; that for “QVQLVESGGGLVQAGGSLRLSCAASGSIQVYYAMGWYRQAPGKERELVAAISSGGSTNYADSVKGRFTISRDNAKNTVYLQMNSLKPEDTAVYYCAKESGWVGAIHYDYWGQGTQVTVSS” was “low polyreactivity”.
“QVQLVESGGGLVQAGGSLRLSCAASGSIRGYAMGWYRQAPGKERELVAAISWRGGSTYYADSVKGRFTISRDNAKNTVYLQMNSLKPEDTAVYYCAAADGIIESDYWGQGTQVTVSS”: the “polyreactivity (PSR sort gate)” value is recorded as “low polyreactivity”.
Under “QVQLVESGGGLVQAGGSLRLSCAASGSIRYYVMGWYRQAPGKERELVAGINWSGGSTYYADSVKGRFTISRDNAKNTVYLQMNSLKPEDTAVYYCAARFVGVRDGYYYWGQGTQVTVSS” stands “high polyreactivity”; under “QVQLVESGGGLVQAGGSLRLSCAASGSISADYVMGWYRQAPGKDRELVAAISVSAGTTYYADSVKGRFTISRDNAKNTVYLQMNSLKPEDTAVYYCAATDSYYWLYYYGYSPGNDYWGQGTQVTVSS”, “low polyreactivity”.
Under “QVQLVESGGGLVQAGGSLRLSCAASGSISDVYAMGSYRQAPGKETELVAAITSGASTYYADSVKGRFTISRDNAKNTVYLQMNSLKPEDTAVYYCAADSDSQWGMDYWGQGTQVTVSS” stands “low polyreactivity”; under “QVQLVESGGGLVQAGGSLRLSCAASGSISFLYTMGWYRQAPGKERELVAAITGSTASTYYADSVKGCFTISRDNAKNTVYLQMNSLKPEDTAVYYCAAYWYAEGYWVSRDYWGQGTQVTVSS”, “low polyreactivity”.
Under “QVQLVESGGGLVQAGGSLRLSCAASGSISGSYAMGWYRQAPGKERELVASITTSGGGTYYADSVKGRFTISRDNAKNTVYLQMNSLKPEDTAVYYCAVEYGYPYAGLDYWGQGTQVTVSS” stands “low polyreactivity”.
For “QVQLVESGGGLVQAGGSLRLSCAASGSISGYYARGWYRQAPGKERELVASIRYTGARTYYADSVKGRFTISRDNAKYTVYVQMNSLKPEDTAVYYCAATEFTYYYSYDYWGQGTLVTVSS”, the “polyreactivity (PSR sort gate)” value is listed as “low polyreactivity”.
Under “QVQLVESGGGLVQAGGSLRLSCAASGSISIQYVMGWYRPAPGKERELVAAIRVIGGSTSYADSVKGRFTISRDNAKNTVYLQMNSLKPEDTAVYYCAADWAWTISDGYYYGYPQYDYWGQGTQVTVSS” stands “high polyreactivity”.
Under “QVQLVESGGGLVQAGGSLRLSCAASGSISPQNVMGWYRQAPGKERELVAAITGGGSTNYADSVKGRFTISRDNAKNTVYLQMNSLKPEDTAVYYCNADYFQDRLDYWGHGTQVTVSS” stands “low polyreactivity”; under “QVQLVESGGGLVQAGGSLRLSCAASGSISPWYAMGWYRQAPGKERELVAAIRGNGGSTYYADSVKGRFTISRDNAKNTVYLQMNSLKPEDTAVYYCNAVYRRPIFYYWGQGTQVTVSS”, “low polyreactivity”; under “QVQLVESGGGLVQAGGSLRLSCAASGSISPYNAKGWYRQAPGKERELVAAISSGGRTYYAVSVKGRFTISRDNAKNTVYLQMNSLKPEDTAVYYCNKYPLRPYRGLGVYYRSDYWGQGTQVTVSS”, “high polyreactivity”.
The value for “QVQLVESGGGLVQAGGSLRLSCAASGSISPYNAMGWYRQAPGKERELVAAISSGGRTYYADSVKGRFTISRDNAKNTVYLQMNSLKPEDTAVYYCARGYWRVYGYSFWYTPEVGYWGQGTQVTVSS” was “high polyreactivity”; that for “QVQLVESGGGLVQAGGSLRLSCAASGSISPYYAMGWYRQEHGKEREMVAAISSGGSTYYADSVKGRFTISRDNAKNTVYLQMNSLKPEDTAVYYCAKAYNYLGYYKYLRYGKFCYWGEGTQVTVSS” was “high polyreactivity”; that for “QVQLVESGGGLVQAGGSLRLSCAASGSISSAYGMGWYIQAPGKERELVATITSGGSTNYADSVKGRFTISRDNAKNTVYLQMNSLTPEDTAVYYCAVDRYALYSGGDYWGQGTQVTVSS” was “low polyreactivity”.
On to “QVQLVESGGGLVQAGGSLRLSCAASGSISSNAMGWYRQAPGKERELVAAISGSVGSTYYADSVKGRFTISRDNAKNTVYLQMNSLKREDTAVYYCAADAEAGRYVYGASSELGYDYWGQGTQVTVSS”, for which the “polyreactivity (PSR sort gate)” value is “low polyreactivity”.
The value for “QVQLVESGGGLVQAGGSLRLSCAASGSISSQYGMGWYRQAAGKERDLVATIRDGGRTNYADSVKGRFTISRDNGKNTVYLQMNSLKPEDTAVYYCAALYWYYYTWPLYDYWVQGTQVTVSS” was “low polyreactivity”; that for “QVQLVESGGGLVQAGGSLRLSCAASGSISVANAMGWYRQAPGKERELVAAITDSGDDTYYADSVKGRFTISRDNAKNTVYLQMNSLKPEDTAVYYCAVEAWSVPPYDYWGQGTQVTVSS” was “low polyreactivity”; that for “QVQLVESGGGLVQAGGSLRLSCAASGSISVWYVMGWYRQAPGKERELVAAITRSGGSTFYADSVKGRLTISRDNAKNTVYLQMNSLKPEDTAVYYCAADVGVAWGYGYWGQGTQVTVSS” was “low polyreactivity”.
The value for “QVQLVESGGGLVQAGGSLRLSCAASGSISYFNAMGWYRQAPGKERELVAAITSGGSTYYADSVKGRFTISRDNAKNTVYLQMNSLKPEDTAVYYCNAPLEWGVYAAQNWDDGYWGQGTQVTVSS” was “low polyreactivity”; that for “QVQLVESGGGLVQAGGSLRLSCAASGSISYRYAMGWYRQAPGKERELVAAISYRGGTTYYADSVKGRFTISRDNAKNTVYLQMNSLKPEDTAVYYCADDFFGSSYPFYYWGQGTQVTVSS” was “high polyreactivity”.
Under “QVQLVESGGGLVQAGGSLRLSCAASGSISYSYAMGWYRQAPGKERELVAAISWRGVSTYYADSVKGRFTISRDNAKNTVYLQMNSLKPEDTAVYYCNAVHHYPEHIGGGYWGQGTQVTVSS” stands “low polyreactivity”.
As to “QVQLVESGGGLVQAGGSLRLSCAASGSISYYAMGWYRQAPGKEMELVAAISQSGGSTYYADSVKGRFTISRDNAKNTVYLQMNSLKPEDTAVYYCAAKSPYSSYYPYGYWGQGTQVTVSS”, the “polyreactivity (PSR sort gate)” value is reported as “high polyreactivity”.

(Values after the nanobody polyreactivity screen of Harvey et al. (2022).)
